Each sequence was assayed on Escherichia coli TOP10 (assay: shrunken log2 fold change of peptide-encoding DNA abundance (4.5 h post-induction vs induction); higher = less antimicrobial activity (less host growth inhibition)). Settings: time post-induction: 4.5 h; library: site-saturation at positions 5, 18, 19, 20.
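Further: peptides expressed intracellularly from a pBAD plasmid library in pooled LB shake-flask culture, induced with 0.3% L-arabinose, DNA abundance read by NGS, three biological replicates, DESeq2 with apeglm shrinkage.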

Sequence | shrunken log2 fold change
RRIRMRPPRLPRPRPRPLHKPRP | 0.301
RRIRRRPPRLPRPRPRPSDDPRP | 0.209
RRIRPRPPRLPRPRPRPKAEPRP | 0.279
RRIRARPPRLPRPRPRPIGYPRP | -0.0969
RRIRGRPPRLPRPRPRPYDQPRP | 0.0878
RRIRHRPPRLPRPRPRPPSCPRP | 0.604
RRIRQRPPRLPRPRPRPGQVPRP | 0.111
RRIRKRPPRLPRPRPRPHHMPRP | -0.0738
RRIRYRPPRLPRPRPRPGAYPRP | -0.292
RRIRIRPPRLPRPRPRPYFFPRP | -0.875
RRIRCRPPRLPRPRPRPGNEPRP | -0.154
RRIRMRPPRLPRPRPRPIWRPRP | 0.128
RRIRERPPRLPRPRPRPSADPRP | -0.625
RRIRKRPPRLPRPRPRPSPAPRP | 0.478
RRIRVRPPRLPRPRPRPENPPRP | 0.0444
RRIRQRPPRLPRPRPRPYCNPRP | -1.38
RRIRIRPPRLPRPRPRPPHAPRP | 0.162
RRIRRRPPRLPRPRPRPTDWPRP | 0.414
RRIRIRPPRLPRPRPRPPGFPRP | 0.195
RRIRVRPPRLPRPRPRPEQMPRP | 0.212
RRIRTRPPRLPRPRPRPEHSPRP | -0.237
RRIRHRPPRLPRPRPRPSPHPRP | -0.39
RRIRQRPPRLPRPRPRPLCNPRP | -0.178
RRIRIRPPRLPRPRPRPEMSPRP | -0.0264
RRIRVRPPRLPRPRPRPWLCPRP | -0.144

Sequence | shrunken log2 fold change
RRIRKRPPRLPRPRPRPSKFPRP | -0.16
RRIRPRPPRLPRPRPRPKAYPRP | -0.029
RRIRSRPPRLPRPRPRPAKSPRP | 0.0744
RRIRCRPPRLPRPRPRPYEMPRP | -0.151
RRIRVRPPRLPRPRPRPDRHPRP | -0.0428
RRIRDRPPRLPRPRPRPYWFPRP | -0.579
RRIRPRPPRLPRPRPRPHSSPRP | -0.171
RRIRMRPPRLPRPRPRPEDVPRP | -0.0102
RRIRVRPPRLPRPRPRPAVDPRP | 0.192
RRIRNRPPRLPRPRPRPLMMPRP | -0.193
RRIRGRPPRLPRPRPRPHHVPRP | -0.00478
RRIRWRPPRLPRPRPRPFQPPRP | -0.0697
RRIRPRPPRLPRPRPRPHEDPRP | -0.0757
RRIRTRPPRLPRPRPRPCIKPRP | -0.476
RRIRPRPPRLPRPRPRPDQVPRP | 0.0258
RRIRMRPPRLPRPRPRPPRIPRP | 0.226
RRIRVRPPRLPRPRPRPAKYPRP | -0.575
RRIRFRPPRLPRPRPRPFVSPRP | -0.296
RRIRRRPPRLPRPRPRPTALPRP | 0.554
RRIRFRPPRLPRPRPRPCQIPRP | -0.0143
RRIRVRPPRLPRPRPRPDAAPRP | 0.976
RRIRKRPPRLPRPRPRPLSLPRP | -0.131
RRIRERPPRLPRPRPRPDNKPRP | -0.75
RRIRIRPPRLPRPRPRPQEPPRP | -0.04
RRIRDRPPRLPRPRPRPAYFPRP | 0.128

Sequence | shrunken log2 fold change
RRIRRRPPRLPRPRPRPIEQPRP | 0.0304
RRIRDRPPRLPRPRPRPIYIPRP | -0.288
RRIRWRPPRLPRPRPRPEHSPRP | 0.114
RRIRTRPPRLPRPRPRPACFPRP | 0.252
RRIRYRPPRLPRPRPRPYIFPRP | -0.322
RRIRGRPPRLPRPRPRPHLPPRP | 0.0386
RRIRRRPPRLPRPRPRPSDWPRP | -0.302
RRIRYRPPRLPRPRPRPVTVPRP | -0.302
RRIRNRPPRLPRPRPRPIYWPRP | 0.0553
RRIRSRPPRLPRPRPRPVFIPRP | -0.598
RRIRTRPPRLPRPRPRPNVMPRP | 0.0814
RRIRDRPPRLPRPRPRPQEDPRP | 0.399
RRIRNRPPRLPRPRPRPPKNPRP | 0.196
RRIRCRPPRLPRPRPRPESYPRP | -0.336
RRIRGRPPRLPRPRPRPNQIPRP | 0.109
RRIRMRPPRLPRPRPRPMEIPRP | -0.129
RRIRNRPPRLPRPRPRPLWLPRP | -0.181
RRIRIRPPRLPRPRPRPFIPPRP | -0.697
RRIRKRPPRLPRPRPRPEEVPRP | 2.83
RRIRSRPPRLPRPRPRPHMCPRP | -0.425
RRIRVRPPRLPRPRPRPHLVPRP | -0.133
RRIRIRPPRLPRPRPRPWDIPRP | -0.00968
RRIRTRPPRLPRPRPRPGNLPRP | 0.021
RRIRNRPPRLPRPRPRPTLFPRP | 0.0912
RRIRMRPPRLPRPRPRPFACPRP | -0.1

Sequence | shrunken log2 fold change
RRIRNRPPRLPRPRPRPMLDPRP | -0.000365
RRIRQRPPRLPRPRPRPTFTPRP | -0.222
RRIRGRPPRLPRPRPRPNLWPRP | 0.671
RRIRIRPPRLPRPRPRPGKCPRP | -0.215
RRIRIRPPRLPRPRPRPHMVPRP | -0.181
RRIRQRPPRLPRPRPRPNNAPRP | -0.216
RRIRARPPRLPRPRPRPIACPRP | 0.0285
RRIRHRPPRLPRPRPRPYMTPRP | -0.313
RRIRIRPPRLPRPRPRPALGPRP | 0.0956
RRIRQRPPRLPRPRPRPGIFPRP | 0.0804
RRIRYRPPRLPRPRPRPMWKPRP | -0.00663
RRIRQRPPRLPRPRPRPHNIPRP | -0.076
RRIRSRPPRLPRPRPRPFNYPRP | 0.0477
RRIRYRPPRLPRPRPRPCGFPRP | -0.241
RRIRERPPRLPRPRPRPIEMPRP | -0.0653
RRIRSRPPRLPRPRPRPLNDPRP | -0.182
RRIRRRPPRLPRPRPRPHAKPRP | 0.0278
RRIRDRPPRLPRPRPRPFPTPRP | 0.0231
RRIRRRPPRLPRPRPRPPRFPRP | 1.17
RRIRSRPPRLPRPRPRPPCKPRP | -0.163
RRIRYRPPRLPRPRPRPIHAPRP | -1.49
RRIRNRPPRLPRPRPRPKPDPRP | 0.355
RRIRYRPPRLPRPRPRPWDGPRP | -0.196
RRIRIRPPRLPRPRPRPHFEPRP | -0.377
RRIRKRPPRLPRPRPRPWLQPRP | -0.0256

Sequence | shrunken log2 fold change
RRIRERPPRLPRPRPRPGLYPRP | -0.233
RRIRHRPPRLPRPRPRPWDWPRP | -0.00132
RRIRGRPPRLPRPRPRPYRWPRP | 0.191
RRIRKRPPRLPRPRPRPYYIPRP | -0.372
RRIRSRPPRLPRPRPRPMFCPRP | -0.285
RRIRKRPPRLPRPRPRPPYGPRP | 0.156
RRIRERPPRLPRPRPRPPESPRP | 0.16
RRIRRRPPRLPRPRPRPQDGPRP | 0.106
RRIRTRPPRLPRPRPRPDKIPRP | -0.172
RRIRTRPPRLPRPRPRPEKGPRP | -0.0355
RRIRWRPPRLPRPRPRPYMKPRP | -0.459
RRIRQRPPRLPRPRPRPNTRPRP | -0.0754
RRIRERPPRLPRPRPRPCGGPRP | -0.0228
RRIRWRPPRLPRPRPRPTINPRP | -0.303
RRIRTRPPRLPRPRPRPFWTPRP | -0.258
RRIRGRPPRLPRPRPRPGQTPRP | 0.405
RRIRDRPPRLPRPRPRPYYKPRP | -0.195
RRIRQRPPRLPRPRPRPDSDPRP | -0.159
RRIRTRPPRLPRPRPRPASEPRP | -0.0873
RRIRGRPPRLPRPRPRPNCYPRP | 0.183
RRIRPRPPRLPRPRPRPLKAPRP | -0.0747
RRIRKRPPRLPRPRPRPMELPRP | 0.159
RRIRSRPPRLPRPRPRPPHHPRP | -0.0759
RRIRKRPPRLPRPRPRPITWPRP | 0.0399
RRIRARPPRLPRPRPRPARWPRP | 0.95

Sequence | shrunken log2 fold change
RRIRERPPRLPRPRPRPQYAPRP | -0.158
RRIRFRPPRLPRPRPRPFRHPRP | 0.0504
RRIRHRPPRLPRPRPRPFVPPRP | -0.455
RRIRYRPPRLPRPRPRPCSGPRP | -0.0198
RRIRPRPPRLPRPRPRPCIFPRP | -0.359
RRIRHRPPRLPRPRPRPHLLPRP | -0.286
RRIRLRPPRLPRPRPRPERMPRP | -0.0208
RRIRHRPPRLPRPRPRPTPLPRP | 0.243
RRIRVRPPRLPRPRPRPWYYPRP | 0.0171
RRIRSRPPRLPRPRPRPQTPPRP | 0.6
RRIRLRPPRLPRPRPRPLCWPRP | 0.487
RRIRSRPPRLPRPRPRPVNTPRP | -0.691
RRIRWRPPRLPRPRPRPGVNPRP | 0.0981
RRIRIRPPRLPRPRPRPILHPRP | -0.469
RRIRSRPPRLPRPRPRPRQCPRP | 0.159
RRIRSRPPRLPRPRPRPIAWPRP | -0.0861
RRIRDRPPRLPRPRPRPRFVPRP | 0.0484
RRIRSRPPRLPRPRPRPEARPRP | 0.292
RRIRLRPPRLPRPRPRPQHMPRP | -0.767
RRIRMRPPRLPRPRPRPYCIPRP | 0.0786
RRIRDRPPRLPRPRPRPDLKPRP | 0.169
RRIRNRPPRLPRPRPRPPFLPRP | -0.0418
RRIRQRPPRLPRPRPRPAGWPRP | 0.808
RRIRWRPPRLPRPRPRPCNFPRP | -0.464
RRIRRRPPRLPRPRPRPFGTPRP | 0.0468
